Patent US20240166765A1, “INFLAMMATORY DISEASE TREATMENT USING ANTI-TISSUE FACTOR ANTIBODIES” (Iconic Therapeutics LLC, priority 2020, published 2024)

Tests used:
Assay type in all cases: binding
[1] = target: T1, human TF (TF-positive MDA-MB-231 cells) (Homo sapiens, UniProt P13726); assay: Antibody competition assay with 43D7 on MDA-MB-231 cells; details: 20 nM 43D7-Alexa488
T1 construct: Human TF-positive cancer cell lines A431 and MDA-MB-231; host or cells: MDA-MB-231
Protocol: Alexa Fluor antibodies were generated using Alexa Fluor 488 5-sulfo-[…] esters (ThermoFisher Scientific) following manufacturer's protocol. Excess Alexa Fluor dye was removed from the antibody dye conjugate preparations by gel filtration (ThermoFisher Scientific).
After another 1 hr incubation on ice, cells were washed, stained with a viability dye, and analyzed by flow cytometry. The Alexa488 fluorescence data from viable cells was summarized using median fluorescence intensity.

[2] = target: T2, chimeric human-rat TF constructs expressed on HEK293 cells (Homo sapiens, UniProt P13726); assay: Epitope binning, chimeric TF construct mapping (live cell staining assay); details: construct hTF
T2 construct: expressed in transfected cells; host or cells: HEK293
Protocol: (§1) To establish binding of the anti-human TF antibodies to the various TF constructs, HEK293 cells were transfected with a DNA plasmid that co-expresses the TF construct and a green fluorescent protein marker. For a subset of the antibodies, an antibody titration (a 12-point 1:3 dilution series starting at 250 nM) was evaluated on select TF constructs (See international PCT application PCT/US2019/012427 and U.S. utility application Ser. No. 16/959,652, incorporated herein by reference in their entirety). […] Two days after transfection, cells were collected from the tissue culture plate, stained with 15 μg/ml of the indicated anti-TF antibody, washed, stained with anti-human IgG-Fc Alexa Fluor 647 polyclonal antibody, washed, and stained with the viability dye 4′,6-Diamidino-2-Phenylindole, Dihydrochloride. Upon acquisition of 80,000 live events on a flow cytometer, live cells marked with the fluorescent marker were analyzed for the degree of staining by the anti-TF antibody. […] As used herein, the term “live cell staining assay” refers to the antibody binding assay used in this example.
(§2) When “Percentage antibody binding to TF construct relative to hTF” in Tables 51 and 52 was less than 50%, the antibody was considered a non-binder (0) in Tables 53 and 54.

[3] = target: T3, chimeric human-rat TF constructs expressed on HEK293 cells (Homo sapiens, UniProt P13726, A112W/A121H/DEL115-116/DUP123-123/E127T/E131K/E137D/G113R/INS118HGKETLF/L125P/L136R/N139K/P130R/S120T/S129A/T133L/Y110V/Y126F); assay: as above; details: construct h78-107_r.v2 (27); human segment replaced by rat segment
T3 construct: expressed in transfected cells; host or cells: HEK293
Protocol: as §1, §2

[4] = target: T4, chimeric human-rat TF constructs expressed on HEK293 cells (Homo sapiens, UniProt P13726, A112W/A121H/DEL115-116/DUP123-123/G113R/INS118HGKETLF/L125P/S120T/Y110V); assay: as above; details: construct h78-93_r (18); human segment replaced by rat segment
T4 construct: expressed in transfected cells; host or cells: HEK293
Protocol: as §1, §2

[5] = target: T5, chimeric human-rat TF constructs expressed on HEK293 cells (Homo sapiens, UniProt P13726, D177Q/I184G/K181N/N170G/R168K/S174T/T186I/W190R/Y188T); assay: as above; details: construct h133-158_r (9); human segment replaced by rat segment
T5 construct: expressed in transfected cells; host or cells: HEK293
Protocol: as §1, §2

[6] = target: T6, chimeric human-rat TF constructs expressed on HEK293 cells (Homo sapiens, UniProt P13726, D212E/E215V/N216S/S220F/V221A); assay: as above; details: construct h175-189_r (5); human segment replaced by rat segment
T6 construct: expressed in transfected cells; host or cells: HEK293
Protocol: as §1, §2

[7] = target: T7, chimeric human-rat TF constructs expressed on HEK293 cells (Homo sapiens, UniProt P13726, E160K/E162S/F148Y/L140I/N156K/R163F/S147K/T144V/V151G/V155L); assay: as above; details: construct h108-132_r (10); human segment replaced by rat segment
T7 construct: expressed in transfected cells; host or cells: HEK293
Protocol: as §1, §2

[8] = target: T8, chimeric human-rat TF constructs expressed on HEK293 cells (Homo sapiens, UniProt P13726, E58Q/K47I/N50D/Q64Y/V62T/V65T); assay: as above; details: construct h1-38_r (14); human segment replaced by rat segment
T8 construct: expressed in transfected cells; host or cells: HEK293
Protocol: as §1, §2

[9] = target: T9, chimeric human-rat TF constructs expressed on HEK293 cells (Homo sapiens, UniProt P13726, K100N); assay: as above; details: construct hTF_K68N
T9 construct: expressed in transfected cells; host or cells: HEK293
Protocol: as §1, §2

[10] = target: T10, chimeric human-rat TF constructs expressed on HEK293 cells (Homo sapiens, UniProt P13726, K181N); assay: as above
T10 construct: expressed in transfected cells; host or cells: HEK293
Protocol: as §1, §2

[11] = target: T11, chimeric human-rat TF constructs expressed on HEK293 cells (Homo sapiens, UniProt P13726, N170G/R168K); assay: as above; details: construct h133-139_r (2); human segment replaced by rat segment
T11 construct: expressed in transfected cells; host or cells: HEK293
Protocol: as §1, §2

[12] = target: T12, chimeric human-rat TF constructs expressed on HEK293 cells (Homo sapiens, UniProt P13726, P226F); assay: as above; details: construct h190-219_r (16); human segment replaced by rat segment
T12 construct: expressed in transfected cells; host or cells: HEK293
Protocol: as §1, §2

## TF-011
[1]
  % 43D7 binding: did not reduce
[2]; Table 53
  Antibody binding to TF construct: 1 (between 50% and 150%, the antibody was considered a binder (1))
[2]; Table 54
  Antibody binding to TF construct: 1 (between 50% and 150%, the antibody was considered a binder (1))
[3]
  Antibody binding to TF construct: 0 (less than 50%, the antibody was considered a non-binder (0))
[4]
  Antibody binding to TF construct: 1 (between 50% and 150%, the antibody was considered a binder (1))
[5]
  Antibody binding to TF construct: 1 (between 50% and 150%, the antibody was considered a binder (1))
[6]
  Antibody binding to TF construct: 1 (between 50% and 150%, the antibody was considered a binder (1))
[7]
  Antibody binding to TF construct: 1 (between 50% and 150%, the antibody was considered a binder (1))
[8]
  Antibody binding to TF construct: 1 (between 50% and 150%, the antibody was considered a binder (1))
[9]
  Antibody binding to TF construct: 1 (between 50% and 150%, the antibody was considered a binder (1))
[10]; construct h146-151_r (1), human segment replaced by rat segment
  Antibody binding to TF construct: 1 (between 50% and 150%, the antibody was considered a binder (1))
[10]; construct hTF_K149N
  Antibody binding to TF construct: 1 (between 50% and 150%, the antibody was considered a binder (1))
[11]
  Antibody binding to TF construct: 1 (between 50% and 150%, the antibody was considered a binder (1))
[12]
  Antibody binding to TF construct: 1 (between 50% and 150%, the antibody was considered a binder (1))
